Laboratory results: US20080234198A1 (Eli Lilly, published 2008)
Positions count from the first letter of the chain named. *1 amine or outer side, *2 acyl side, *3 side chain or, on linkers, in order; H or OH if unused. [ ]: non-standard residue; d: D form. The star is where a group is joined. Tyr(OMe) = methoxy tyrosine, COc1ccc(C[C@H](N[*:1])C(=O)[*:2])cc1; WPEG40K = not defined here; Orn = NCCC[C@H](N)C(=O)O; Abu = CC[C@H](N)C(=O)O; Hexanoyl = CCCCCC(=O)*; Aib = CC(C)(N)C(=O)O

T1: rat VPAC2 receptor (rat, UniProt P35000 23-437)
T1 sequence (looked up): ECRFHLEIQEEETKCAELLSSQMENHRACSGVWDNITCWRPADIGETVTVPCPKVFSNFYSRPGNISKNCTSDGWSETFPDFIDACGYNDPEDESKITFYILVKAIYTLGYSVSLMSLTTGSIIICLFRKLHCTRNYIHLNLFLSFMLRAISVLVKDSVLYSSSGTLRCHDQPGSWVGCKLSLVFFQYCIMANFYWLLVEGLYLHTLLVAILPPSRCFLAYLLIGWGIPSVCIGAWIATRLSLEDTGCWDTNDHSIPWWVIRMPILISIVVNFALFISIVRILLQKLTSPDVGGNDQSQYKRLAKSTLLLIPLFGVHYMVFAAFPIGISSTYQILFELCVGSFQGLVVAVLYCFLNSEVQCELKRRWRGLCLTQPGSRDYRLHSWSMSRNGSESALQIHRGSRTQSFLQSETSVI

T2: rat VPAC1 receptor (rat, UniProt P30083 31-459)
T2 sequence (looked up): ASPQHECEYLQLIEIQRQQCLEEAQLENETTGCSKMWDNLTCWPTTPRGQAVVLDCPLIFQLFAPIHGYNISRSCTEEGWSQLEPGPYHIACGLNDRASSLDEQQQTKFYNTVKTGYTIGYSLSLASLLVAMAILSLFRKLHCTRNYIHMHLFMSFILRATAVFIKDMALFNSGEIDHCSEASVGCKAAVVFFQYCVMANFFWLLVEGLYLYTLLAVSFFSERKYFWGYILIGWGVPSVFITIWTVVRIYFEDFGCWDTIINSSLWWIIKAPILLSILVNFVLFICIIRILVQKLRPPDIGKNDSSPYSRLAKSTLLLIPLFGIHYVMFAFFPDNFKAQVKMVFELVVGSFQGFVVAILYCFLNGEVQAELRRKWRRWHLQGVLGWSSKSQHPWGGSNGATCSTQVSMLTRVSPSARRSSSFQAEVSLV

T3: human VPAC2 receptor (human, UniProt P41587 24-438)
T3 construct: whole, on cells; CHO-S cell line stably expressing human VPAC2 (cAMP assays)
T3 sequence (looked up): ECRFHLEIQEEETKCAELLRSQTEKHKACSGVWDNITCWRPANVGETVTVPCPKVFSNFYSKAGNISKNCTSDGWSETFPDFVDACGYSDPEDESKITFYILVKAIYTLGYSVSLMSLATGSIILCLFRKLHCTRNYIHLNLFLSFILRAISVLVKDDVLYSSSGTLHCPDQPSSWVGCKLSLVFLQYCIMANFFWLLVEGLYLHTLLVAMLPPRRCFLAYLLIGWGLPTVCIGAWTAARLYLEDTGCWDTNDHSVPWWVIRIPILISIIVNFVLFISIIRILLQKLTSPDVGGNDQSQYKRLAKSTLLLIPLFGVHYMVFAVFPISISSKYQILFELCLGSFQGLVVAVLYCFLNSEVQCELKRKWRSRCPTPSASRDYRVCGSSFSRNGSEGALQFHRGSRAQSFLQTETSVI

B1: P570 (peptide)
peptide: HSDAVFTEQYTXLRXQLAXXXYLQXIXXGGPSSGAPPPCC
modifications: C6-HSDAVFTEQY(OMe)TOrnLRAibQLAAbuAibOrnYLQAibIOrnOrnGGPSSGAPPPC(PEG30K)C(PEG30K)-NH2
B2: P590 (peptide)
peptide: B1 peptide with A18X, X19A, X25S
modifications: C6-HSDAVFTEQY(OMe)TOrnLRAibQLAbuAAibOrnYLQSIOrnOrnGGPSSGAPPPC(PEG20K)C(PEG20K)-NH2
B3: P574 (peptide)
peptide: B1 peptide
modifications: C6-HSDAVFTEQY(OMe)TOrnLRAibQLAAbuAibOrnY(OMe)LQAibIOrnOrnGGPSSGAPPPC(PEG20K)C(PEG20K)-NH2
B4: P582 (peptide)
peptide: B1 peptide with X25S
modifications: C6-HSDAVFTEQY(OMe)TOrnLRAibQLAAbuAibOrnY(OMe)LQSIOrnOrnGGPSSGAPPPC(PEG20K)C(PEG20K)-NH2
B5: P602 (peptide)
peptide: B1 peptide with L23X, X25S
modifications: C6-HSDAVFTEQY(OMe)TOrnLRAibQLAAbuAibOrnYAibQSIOrnOrnGGPSSGAPPPC(PEG30K)C(PEG30K)-NH2
B6: P490 (peptide)
peptide: HSDAVFTEQYTXLRXQVAAXXYLXSIXXGGPSSGAPPPC
modifications: C6-HSDAVFTEQY(OMe)TOrnLRAibQVAAAibOrnYLK(CO(CH2)2SPEG20K)SIOrnOrnGGPSSGAPPPC(PEG20K)-NH2
B7: P551 (peptide)
peptide: HSDAVFTEQYTXLRXQLAXXXYLQSIXXXGGPSSGAPPPC
modifications: C6-HSDAVFTEQY(OMe)TOrnLRAibQLAAbuAibOrnYLQSIOrnK(CO(CH2)2SPEG20K)OrnGGPSSGAPPPC(PEG20K)-NH2
B8: P580 (peptide)
peptide: B7 peptide with S25X, X29C
modifications: C6-HSDAVFTEQY(OMe)TOrnLRAibQLAAbuAibOrnYLQAibIOrnOrnC(PEG20K)GGPSSGAPPPC(PEG20K)-NH2
B9: P572 (peptide)
peptide: B7 peptide with X29C
modifications: C6-HSDAVFTEQY(OMe)TOrnLRAibQLAAbuAibOrnYLQSIOrnOrnC(PEG20K)GGPSSGAPPPC(PEG20K)-NH2
B10: P562 (peptide)
peptide: B7 peptide with L17V, X19A, X29C
modifications: C6-HSDAVFTEQY(OMe)TOrnLRAibQVAAAibOrnYLQSIOrnOrnC(PEG20K)GGPSSGAPPPC(PEG20K)-NH2
B11: P553 (peptide)
peptide: B7 peptide with S25X, X28C
modifications: C6-HSDAVFTEQY(OMe)TOrnLRAibQLAAbuAibOrnYLQAibIOrnC(PEG20K)OrnGGPSSGAPPPC(PEG20K)-NH2
B12: P555 (peptide)
peptide: B7 peptide with X28C
modifications: C6-HSDAVFTEQY(OMe)TOrnLRAibQLAAbuAibOrnYLQSIOrnC(PEG20K)OrnGGPSSGAPPPC(PEG20K)-NH2

How the values were obtained:
rat VPAC2 receptor = target: T1, rat VPAC2 receptor; experiment: cell-based or functional assay
rat VPAC1 receptor = target: T2, rat VPAC1 receptor; experiment: cell-based or functional assay
human VPAC2 receptor [1] = target: T3, human VPAC2 receptor; experiment: filter binding, VPAC2 cell membranes, displacement of 125I-VIP
Procedure: Binding assays: Membrane prepared from a stable VPAC2 cell line (see Example 3) or from cells transiently transfected with human VPAC1 or PAC1 are used.
The assay plate is filled with 25 μL assay buffer, 25 μL membranes (2.5 μg) suspended in assay buffer, 25 μL agonist in assay buffer, and 25 μL tracer (about 40000 cpm) in assay buffer. The filled plate is incubated for 1 hour with shaking.
The transfer from assay plate to filter plate is conducted. The blocking buffer is aspirated by vacuum filtration and washed two times with flush buffer. 90 μL is transferred from the assay plate to the filter plate. The 90 μL transferred from assay plate is aspirated and washed three times with 200 μL flush buffer. The plastic support is removed. It is dried for 1 hour at 60° C. 30 μL Microscint is added. The count is performed.

human VPAC2 receptor [2] = target: T3, human VPAC2 receptor; experiment: cell-based or functional assay

Binder | Rat VPAC2 Receptor: DiscoveRx: (EC50; nM) (rat VPAC2 receptor) [nM] | Rat VPAC1 Receptor: DiscoveRx: (EC50; nM) (rat VPAC1 receptor) [nM] | IC50 (human VPAC2 receptor [1]) [µM] | Human VPAC2 Receptor: DiscoveRx (EC50; nM) (human VPAC2 receptor [2]) [nM] | Human VPAC2 Receptor: Alphascreen (EC50; nM) (human VPAC2 receptor [2]) [nM]
Hexanoyl-HSDAVFTEQ[Tyr(OMe)]T[Orn]LRK(WPEG40K)QLA[Abu][Aib][Orn]YLQ[Aib]I[Orn][Orn]GGPSSGAPPPS-NH2 (reading uncertain) [P557] | 397 | 581 | 0.38 | 108 | 
B1 | 21.3 | 86.7 | 0.0041 | 4.5 | 13.4
B2 | 6.9 | 245 | 0.0074 |  | 4.1
B3 | 33.8 | 163 | 0.0323 | 36.1 | 21.2
B4 | 31 | 137 | 0.0483 |  | 20.3
B5 | 36.9 | 209 | 0.028 | 7.2 | 42.1
C6-HSDAVFTEQ[Tyr(OMe)]T[Orn]LRC(PEG 40 kDa)QLA[Abu][Aib][Orn]YLQ[Aib]I[Orn][Orn]GGPSSGAPPPS-NH2 [P547] | 150 | 76.2 | 0.0056 |  | 62
B6 | 192 | > 1000 | 0.0132 |  | 116
HSDAVFTEQYTXLRXQVAAXXYLQSIXXGGPSSGAPPPS (C6-HSDAVFTEQY(OMe)TOrnLRK(CO(CH2)2SPEG40K)QVAAAibOrnYLQSIOrnOrnGGPSSGAPPPS-NH2) [P485] | 42.5 | 735 | 0.0173 |  | 44.5
HSDAVFTEQYTXLRXQVAAXCYLQSIXXGGPSSGAPPPS (C6-HSDAVFTEQY(OMe)TOrnLRAibQVAAAibC(PEG40K)YLQSIOrnOrnGGPSSGAPPPS-NH2) [P460] | 1160 | > 1000 | 0.914 |  | 430
HSDAVFTEQYTXLRXQVAAXXYLQSIXXGGPSSGAPPPS (C6-HSDAVFTEQY(OMe)TOrnLRAibQVAAK(CO(CH2)2SPEG40K)OrnYLQSIOrnOrnGGPSSGAPPPS-NH2) [P475] | 220 | > 1000 | 0.436 |  | 109
HSDAVFTEQYTXLRCQVAAXXYLQSIXXGGPSSGAPPPS (C6-HSDAVFTEQY(OMe)TOrnLRC(PEG40K)QVAAAibOrnYLQSIOrnOrnGGPSSGAPPPS-NH2) [P483] | 128 | 224 | 0.0373 |  | 33.5
HSDAVFTEQYTXLRXQVAAXXYLXSIXXGGPSSGAPPPS (C6-HSDAVFTEQY(OMe)TOrnLRAibQVAAAibOrnYLK(WPEG40K)SIOrnOrnGGPSSGAPPPS-NH2) [P531] | 69.9 | 301 | 0.0697 |  | 94.6
HSDAVFTEQYTRXRXQLAAXXYLQSIKXXGGPSSGAPPPC (C6-HSDAVFTEQY(OMe)TRAibRAibQLAAAibOrnY(OMe)LQSIKAibOrnGGPSSGAPPPC(PEG40K)-NH2) [P417] | 8.7 | 232 | 0.0241 |  | 14.7
HSDAVFTEQYTXLRXQLAXXXYLQXIXCXGGPSSGAPPPS (C6-HSDAVFTEQY(OMe)TOrnLRAibQLAAbuAibOrnYLQAibIOrnC(PEG40K)OrnGGPSSGAPPPS-NH2) [P537] | 38.8 | 206 | 0.0172 |  | 32
B7 | 13.2 | 172 | 0.0166 |  | 15.6
HSDAVFTEQYTXLRXQLAAXXYLQSIXXCGGPSSGAPPPS (C6-HSDAVFTEQY(OMe)TOrnLRAibQLAAAibOrnYLQSIOrnOrnC(PEG40K)GGPSSGAPPPS-NH2) [P560] | 20.4 | 156 | 0.0116 | 11.3 | 13.8
B8 | 11.9 | 1.1 | 0.0207 |  | 10.9
HSDAVFTEQYTXLRXQLAXXXYLQSIXCXGGPSSGAPPPS (C6-HSDAVFTEQY(OMe)TOrnLRAibQLAAbuAibOrnYLQSIOrnC(PEG40K)OrnGGPSSGAPPPS-NH2) [P539] | 21 | 32.6 | 0.0135 | 47.3 | 10.7
HSDAVFTEQYTXLRXQLAXXXYLQSIXXCGGPSSGAPPPS (C6-HSDAVFTEQY(OMe)TOrnLRAibQLAAbuAibOrnYLQSIOrnOrnC(PEG40K)GGPSSGAPPPS-NH2) [P566] | 13.1 | 52.7 | 0.0082 | 7.8 | 11.8
B9 | 10.8 | 94.5 | 0.0149 |  | 11.2
B10 | 52.5 | 393 | 0.0428 | 24.2 | 30.2
B11 | 22 | 262 | 0.0217 |  | 15
B12 | 32.5 | 68.9 | 0.0154 | 8.1 | 22.5
